Residue numbers refer to the chain shown, from its start. One block for each binder: values may come before it.
Experiments:
Human VEGF165 (REGN110) [1] = target: T1, Human VEGF165 (REGN110) (human, UniProt P15692-4 27-191); assay: SPR, 25C, trap captured by REGN18, hVEGF165 injected
T1 construct: also called hVEGF165; REGN110-L9
Method: (§1) Equilibrium dissociation constants (KD values) for human VEGF₁₆₅ binding to various purified VEGF mini-trap constructs were determined using a real-time surface plasmon resonance biosensor using a Biacore 3000 instrument. All binding studies were performed in 10 mM HEPES, 150 mM NaCl, 3 mM EDTA, and 0.05% v/v Surfactant Tween-20; pH 7.4 (HBS-ET) running buffer at 25° C. The Biacore sensor surface was first derivatized by amine coupling with a monoclonal mouse anti-VEGFR1 antibody (REGN18) to capture VEGF mini-trap constructs. Binding studies were performed on the following human VEGF reagents: human VEGF₁₆₅. […] Dissociation of bound VEGF₁₆₅ reagent from VEGF mini-trap constructs was monitored for 60 minutes in HBS-ET running buffer. Kinetic association (ka) and dissociation (kd) rate constants were determined by fitting the real-time sensorgrams to a 1:1 binding model using Scrubber 2.0c curve fitting software. Binding dissociation equilibrium constants (KD) and dissociative half-lives (t1/2) were calculated from the kinetic rate constants as: […]

[2] = target: T2, Human VEGF121 (R&D SYSTEMS Cat #4644-VS) (human, UniProt P15692-9 27-147); assay: cell-based or functional assay
T2 sequence (looked up): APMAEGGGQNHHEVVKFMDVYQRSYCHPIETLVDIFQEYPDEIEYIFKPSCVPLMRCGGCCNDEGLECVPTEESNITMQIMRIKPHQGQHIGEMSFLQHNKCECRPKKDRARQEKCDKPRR

Human VEGF165 (REGN110) [3] = target: T1, Human VEGF165 (REGN110); assay: cell-based or functional assay
[4] = target: T2, Human VEGF121 (R&D SYSTEMS Cat #4644-VS); assay: cell-based or functional assay; remark: listed apart in the source
Human VEGF165 (REGN110) [5] = target: T1, Human VEGF165 (REGN110); assay: SPR (Biacore 3000), 25C, trap captured by REGN18, hVEGF165 injected
Method: as §1

[6] = target: T2, Human VEGF121 (R&D SYSTEMS Cat #4644-VS); assay: cell-based or functional assay; remark: listed apart in the source
[7] = target: T2, Human VEGF121 (R&D SYSTEMS Cat #4644-VS); assay: cell-based or functional assay; remark: listed apart in the source

- IC50, VEGFR1 40 pM R&D VEGF121 (luciferase) [2]: 2.16e-11 M
- IC50, VEGFR1 40 pM VEGF165 (REGN110) (luciferase) (Human VEGF165 (REGN110) [3]): 2.19e-11 M
- 2 nM VEGF165 Bound (RU) (Human VEGF165 (REGN110) [1]): 19.4 RU
- Kd (Human VEGF165 (REGN110) [1]): ≤ 0.86 pM
- koff (Human VEGF165 (REGN110) [1]): ≤ 1e-05 s⁻¹
- kon (Human VEGF165 (REGN110) [1]): 1.16e+07 M⁻¹ s⁻¹
- t½ (Human VEGF165 (REGN110) [1]): ≥ 19.2 h
B2: REGN11095, VEGF mini-trap hIgG1 Mut GGGL Fc (other)
chain: SDTGRPFVEMYSEIPEIIHMTEGRELVIPCRVTSPNITVTLKKFPLDTLIPDGKRIIWDSRKGFIISNATYKEIGLLTCEATVNGHLYKTNYLTHRQTNTIIDVVLSPSHGIELSVGEKLVLNCTARTELNVGIDFNWEYPSSKHQHKKLVNRDLKTQSGSEMKKFLSTLTIDGVTRSDQGLYTCAASSGLMTKKNSTFVRVHEKDKTHTCPPCPGGGLLG
notes: also called Mini-REGN10514; mREGN10514

- IC50, Inhibition of 20 pM VEGF121, VEGFR1 assay (luciferase) [4]: 1.32e-11 M
- 2.5 nM hVEGF165 Bound (RU) (Human VEGF165 (REGN110) [5]): 14.3 RU
- Kd (Human VEGF165 (REGN110) [5]): ≤ 1.37 pM
- koff (Human VEGF165 (REGN110) [5]): ≤ 1e-05 s⁻¹
- kon (Human VEGF165 (REGN110) [5]): 7.3e+06 M⁻¹ s⁻¹
- t½ (Human VEGF165 (REGN110) [5]): ≥ 19.2 h
- IC50 (read off the curve); NFkB-luciferase reporter (RLU), 293/D9/VEGFR1 cells, VEGF121 constant 40 pM [D] [7]: ~1e-11 M
B5: mREGN10187, VEGF mini-trap hIgG4 stealth Fc (other)
chain: SDTGRPFVEMYSEIPEIIHMTEGRELVIPCRVTSPNITVTLKKFPLDTLIPDGKRIIWDSRKGFIISNATYKEIGLLTCEATVNGHLYKTNYLTHRQTNTIIDVVLSPSHGIELSVGEKLVLNCTARTELNVGIDFNWEYPSSKHQHKKLVNRDLKTQSGSEMKKFLSTLTIDGVTRSDQGLYTCAASSGLMTKKNSTFVRVHEKESKYGPPCPPCPAPPVA
notes: IdeS cleaved from REGN10187; also called Mini-REGN10187

Further lines, the binder ahead of its results:

B1: REGN10105 (Alexa 488) (other)
chain: SDTGRPFVEMYSEIPEIIHMTEGRELVIPCRVTSPNITVTLKKFPLDTLIPDGKRIIWDSRKGFIISNATYKEIGLLTCEATVNGHLYKTNYLTHRQTNTIIDVVLSPSHGIELSVGEKLVLNCTARTELNVGIDFNWEYPSSKHQHKKLVNRDLKTQSGSEMKKFLSTLTIDGVTRSDQGLYTCAASSGLMTKKNSTFVRVHEKVECPPCPAPPVA
modifications: tagged with Alexa Fluor 488 (AF488) through amine conjugation
notes: also called REGN10105 AF488
- 2 nM VEGF165 Bound (RU) (Human VEGF165 (REGN110) [1]): 18 RU
- Kd (Human VEGF165 (REGN110) [1]): ≤ 0.74 pM
- koff (Human VEGF165 (REGN110) [1]): ≤ 1e-05 s⁻¹
- kon (Human VEGF165 (REGN110) [1]): 1.36e+07 M⁻¹ s⁻¹
- t½ (Human VEGF165 (REGN110) [1]): ≥ 19.2 h

B3: REGN11095 (Alexa 488) (other)
chain: B2 chain
modifications: tagged with Alexa Fluor 488 (AF488) through amine conjugation
notes: also called REGN11095 AF488
- 2 nM VEGF165 Bound (RU) (Human VEGF165 (REGN110) [1]): 14.9 RU
- Kd (Human VEGF165 (REGN110) [1]): ≤ 0.865 pM
- koff (Human VEGF165 (REGN110) [1]): ≤ 1e-05 s⁻¹
- kon (Human VEGF165 (REGN110) [1]): 1.16e+07 M⁻¹ s⁻¹
- t½ (Human VEGF165 (REGN110) [1]): ≥ 19.2 h

B4: REGN10103, VEGF mini-trap hIgG2 Fc w/4Cys (other)
chain: B5 chain with S207R, Y209C, G210C, P211V, P212E
- IC50, Inhibition of 20 pM VEGF121, VEGFR1 assay (luciferase) [4]: 2.11e-11 M
- 2.5 nM hVEGF165 Bound (RU) (Human VEGF165 (REGN110) [5]): 14.8 RU
- Kd (Human VEGF165 (REGN110) [5]): ≤ 1.08 pM
- koff (Human VEGF165 (REGN110) [5]): ≤ 1e-05 s⁻¹
- kon (Human VEGF165 (REGN110) [5]): 9.3e+06 M⁻¹ s⁻¹
- t½ (Human VEGF165 (REGN110) [5]): ≥ 19.2 h
- IC50 (read off the curve); NFkB-luciferase reporter (RLU), 293/D9/VEGFR1 cells, VEGF121 constant 40 pM [E] [6]: ~2e-11 M

From patent publication US20210347852A1 (Regeneron, published 2021)
